{"source": "the nanobody polyreactivity screen of Harvey et al. (2022)"}
{"test": "yeast display, Sf9 membrane polyspecificity reagent, FACS + sequencing; frameworks hold sequencing errors", "method_in_brief": "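A nanobody's polyreactivity label depends on the gate it was sorted from. Yeast display cells were stained with 10% biotinylated, detergent-solubilized Sf9 membrane reagent for 1 hour at 4 °C, enriched on streptavidin microbeads and sorted by FACS. The low and high (top ~1%) gates were set on anti-HA fluorescence for expression and streptavidin fluorescence for reagent binding.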"}
{"sequence": "QVQLVESGGGLVQAGCSLRLIFAASGSIFIGYAMGWYRQAPGKERELVATITNGGSTYYADSVKGRFTISRDNAKNTVYLQMNSLKPEDSAVYYCNKPTYQWGQGTQVTVSS", "polyreactivity (PSR sort gate)": "high polyreactivity"}
{"sequence": "QVQLVESGGGLVQAGCSLRLSCAASGFIFTTYAMGWYRQEPGKERELVAAISGRGGTTYYADSVKGRFTISLDTAKNTVYLQMNSLKPEDTAVYYCAADGYPGDDYWGQGTQVTVSS", "polyreactivity (PSR sort gate)": "high polyreactivity"}
{"sequence": "QVQLVESGGGLVQAGCSLRLSCAASGFIFYWYAMVWKRQAPGKERELVAAISYDTGSTYYADSVKGRFTISRDKAKNSVYLPMNSLKPEDTAVYYCAADVYYKYYYWGQGSQVTVSS", "polyreactivity (PSR sort gate)": "high polyreactivity"}
{"sequence": "QVQLVESGGGLVQAGCSLRLSCAASGFTFLNNAMGWSRQAPGKEREMVAAISQSGTSTYYADSVKGRFTISRDNAKNTVYLQMNSLKPEDTAVYYCAAEDTYPHDYSGGLEYDYWGQGTQVTVSS", "polyreactivity (PSR sort gate)": "low polyreactivity"}
{"sequence": "QVQLVESGGGLVQAGCSLRLSCAASGFTFQHNAMGWYRQAPGKERELVAAISRGGSTNYADSVKGRFTISRDNAKNTVYLQMNSLKPEDTAVYYCAAYDWRVLWGYDYWGQGTQVTVSS", "polyreactivity (PSR sort gate)": "low polyreactivity"}
{"sequence": "QVQLVESGGGLVQAGCSLRLSCAASGGIFSAYVMGWYRQAPGKERELVAAITRRGGATYYADSVKGRFTISRDNAKNTVYLQMNSLKPEDTAVYYCAADDQYYTEYYYWGQGTQVTVSS", "polyreactivity (PSR sort gate)": "high polyreactivity"}
{"sequence": "QVQLVESGGGLVQAGCSLRLSCAASGIIFRSYAMGWYRQAPGKERELVAAITRSGGSTYADSVKGRFTISRDNAKNTVYLQMNSLKPEDTAVYYCAADRYSGWDYRRDYWGHGTQVTVSS", "polyreactivity (PSR sort gate)": "low polyreactivity"}
{"sequence": "QVQLVESGGGLVQAGCSLRLSCAASGITFANYAMGWYRPAPGKVRELVAAINWSGGITYADSVKGRFTISRDNAKNTVYLQMHSLKPEDTAVYYCNPYYPDYAKYDYWGQGTQVTVSS", "polyreactivity (PSR sort gate)": "low polyreactivity"}
{"sequence": "QVQLVESGGGLVQAGCSLRLSCAASGITFNFYAMGWYRQAPGKERELVAAITSSGASTNYADSVKGRFTISRDNAKNTVYLQMNSLYPEDTAVYYCNAQRSRHSLYPVNELYYWGQGTQVTVTS", "polyreactivity (PSR sort gate)": "low polyreactivity"}
{"sequence": "QVQLVESGGGLVQAGCSLRLSCAASGLIFYTYAMGWYRQAPGKEREFVAAISRRGGSTYYADSVKGRFTISRDNAKNTVYLQMNSLKPEYTAVYYCNARYTYPRPYEEYYYWGQGTQVTVSS", "polyreactivity (PSR sort gate)": "high polyreactivity"}
{"sequence": "QVQLVESGGGLVQAGCSLRLSCAASGLTFYHYTMGWYRQEPGKERDLVAAISRRGGYTYYADSVKGRFTISRDNAKNTVYLQMNSLKPEDTAVYYCAARALRYSRDFDYWGQGTQVTVSS", "polyreactivity (PSR sort gate)": "high polyreactivity"}
{"sequence": "QVQLVESGGGLVQAGCSLRLSCAASGNSFPSYAMGWYRQAPGKARELVAAITTGGRTYYADSVKGRFTISRDNAKNTVYLQMNSLNPEDTAVYYCAADWGVRYPWYRYYYWGQATQVTVSS", "polyreactivity (PSR sort gate)": "high polyreactivity"}
{"sequence": "QVQLVESGGGLVQAGCSLRLSCAASGRIFDNYVMGWYRQAPGQERELVAAISSGGGTYYADSVTGRFTISRDNAKNTVYLQMNSLKPEDTAVYYCAKRRVYDRSFGRYDYWGQGTQVTVSS", "polyreactivity (PSR sort gate)": "low polyreactivity"}
{"sequence": "QVQLVESGGGLVQAGCSLRLSCAASGRIFGGYAMGWYRQAPGKERELVAAISSGGNTKYADSVKGRFTISRDNAKNTVYLQMNSLKPEDSAVYYCAAKFAQPDYRYDYWGQGTQVSVSS", "polyreactivity (PSR sort gate)": "high polyreactivity"}
{"sequence": "QVQLVESGGGLVQAGCSLRLSCAASGRIFRYYAMGWYRQAPGKERELVAAISWSGGSTYYADSVKGRFTISRDNAKNTVYLQMNSLKPEYTAVYYCAARYSLKGGRYDYWGQGTQVTVSS", "polyreactivity (PSR sort gate)": "high polyreactivity"}
{"sequence": "QVQLVESGGGLVQAGCSLRLSCAASGRIFYRNAMGWYRQAPGKERELVAGITRGGSTNYADSVKGRFTISRDNAKNNVYLQLNSLKPEDTAVYYCAKAIPAKFYSEAGYDYWGQGTQVTVSS", "polyreactivity (PSR sort gate)": "low polyreactivity"}
{"sequence": "QVQLVESGGGLVQAGCSLRLSCAASGRIFYYYAMGWYRQAPGKERELVADITWSGGSTYYADSVKGRFTISRDNAKNTVYLQMNSLKPEDTAVYYCNAVYFNYLLEYDYWGQGTQVTVSS", "polyreactivity (PSR sort gate)": "high polyreactivity"}
{"sequence": "QVQLVESGGGLVQAGCSLRLSCAASGRTDFYTMGWYRQAPGKEMELVAAITSTGRTYYADSVKGRFTISRDNAKNTVYLKMNSLKPEDTAVYFCAAVWRYKGLLLPSYYYWGQGTQVTVSS", "polyreactivity (PSR sort gate)": "high polyreactivity"}
{"sequence": "QVQLVESGGGLVQAGCSLRLSCAASGRTIAYNAMGWYRQAPGKERELVAAISWSGGSTYYADSVKGRFTISRDNAKNTVYLQMNSMKPEDSAVYYCAKRFGQYRYPYDYWGQGNQVTVSS", "polyreactivity (PSR sort gate)": "high polyreactivity"}
{"sequence": "QVQLVESGGGLVQAGCSLRLSCAASGSIFAYYDMGWYRQAPGKERELVAAITTRDDDTYYADSVKGRFTISRDNAKNTVYLLLNSLKPEDTAVYYCAAAWWDYGNGKYDYWGQGTQVTVSS", "polyreactivity (PSR sort gate)": "low polyreactivity"}
{"sequence": "QVQLVESGGGLVQAGCSLRLSCAASGSIFGYNDMGWNRQAPGKERELVATITWGGGRTRYADSVKGRFTISRDNAKNTVYLQINCLKPEDIAVYYCAADKRSYSYVRPPRNHEDYWGQGSQVTVSS", "polyreactivity (PSR sort gate)": "low polyreactivity"}
{"sequence": "QVQLVESGGGLVQAGCSLRLSCAASGSIFSSYAMGWYRQAPGKERELVAAITGSGGSTDYADSVKGRFTISRDNAKNTVYLQMNSLKPEDTAVYYCAARPFWPGNSYYYRYYYWGQGTQVTVSS", "polyreactivity (PSR sort gate)": "low polyreactivity"}
{"sequence": "QVQLVESGGGLVQAGCSLRLSCAASGSNFEENAMGWYRQAPGKESELVAAITIGGRTNYADSVKGRFTISRDNAKNTVYLQMNSLKPEDTAVYYCAADLSSNKYWRFWTRYYYWGQGTQVTVSS", "polyreactivity (PSR sort gate)": "low polyreactivity"}
{"sequence": "QVQLVESGGGLVQAGCSLRLSCAASGSTFSYIAMGWYRQAPGKERELVAAITSGSSTNYADSVKGRFTISRDNAKYTVYLQMNSLKPEDTAVSYCAADGYQDKYYWLETWVGYWGHGTQVTVSS", "polyreactivity (PSR sort gate)": "low polyreactivity"}
{"sequence": "QVQLVESGGGLVQAGCSLRLSCAASGSTIYTYTMGWYRQAPGKERELVAAISSSGGDTYYADSVKGRFTISRDNAKNTVYLQMNSLKPEDTAVYYWDALGAFPSLEFDYWGQGTHVTVSS", "polyreactivity (PSR sort gate)": "low polyreactivity"}
{"sequence": "QVQLVESGGGLVQAGCSLRLSCAASGSTLFWYDMGWYRQAPGKERELVAAINWTGGSTYADSVKGRFTISRDNAKNTVYLQMNSLKPEDTAVYYCNADEYWASGYDPYDYWGQGTQVTVSS", "polyreactivity (PSR sort gate)": "low polyreactivity"}
{"sequence": "QVQLVESGGGLVQAGCSLRLSCAASGSTSAYYVMGWNRQAPGKARELVAAIDFSGDSTYYADSVKGRFTISRDNAKNTVYLQMNSLKPEDTAVYYCAAELFYYSSLVTYEYWGQGTQVTVSS", "polyreactivity (PSR sort gate)": "high polyreactivity"}
{"sequence": "QVQLVESGGGLVQAGCSLRLSCDASGSTFNWNAMGRYRQAPGKERELVAVIRRNGATTNYADSVKGRFTISRDNAKITVYLQMNSLKPEDTAVYYCAVAKWQPRRRKYYYWGQGTQVTVSS", "polyreactivity (PSR sort gate)": "high polyreactivity"}
{"sequence": "QVQLVESGGGLVQAGCSLRLSSAASGFTFAYYVMGWYRQAPGKERELVAAISISGGRTYYADSVKGRFTISRDNEKNSVYLQMNRLKPEETAVYYCAADRRTDGHDYWGQGSQVTVSS", "polyreactivity (PSR sort gate)": "high polyreactivity"}
{"sequence": "QVQLVESGGGLVQAGCSLRLSWAASGFTFTYYAMGWYRQEPGKERELVAAISDGGASTYYSDSVKGRFTISRDNAKNTVYLQMNSLKPEDTAVYYCAAETYWPWKDDYWGQGTQVTVSS", "polyreactivity (PSR sort gate)": "high polyreactivity"}
{"sequence": "QVQLVESGGGLVQAGDSLRLSCAASGLTFSAYVMGWYRQAPGKERELVAATSRRGGTTYYADSVKGRFTISRDNAKITVYLQMNSLKPEDTAVYYCGTDYTSGSSYHVGYCGQGTQVTVSS", "polyreactivity (PSR sort gate)": "high polyreactivity"}
{"sequence": "QVQLVESGGGLVQAGDSLRLSCAASGRIFKRNTMGWYRQAPGKERELVAAITRSGGSTYYADSVKGRFTISRDNAMNNVYLQMNSLKPEDTAVYYCNAPQYIGSVPIGDYWGLGTQVTVSS", "polyreactivity (PSR sort gate)": "high polyreactivity"}
{"sequence": "QVQLVESGGGLVQAGDSLRLSCAASGSIFAWKTKGWYRQAPGTERELVAAISSGDSTYYADSVKGRFTISRDNAKNPVYLQMNSLKPEDTAVYYCAATYYQDRRRGYWGQGTQVTVSS", "polyreactivity (PSR sort gate)": "high polyreactivity"}
{"sequence": "QVQLVESGGGLVQAGGCLRLSCAASGRISSSYAMGWYRLAAGKERELVAAITSRGGSTYYADSVKGRFTISRDNAKNTVYLQMNSLKPEDTAVYYCNAPGYLTYDHSYDYWGQGTQVTVSS", "polyreactivity (PSR sort gate)": "low polyreactivity"}
{"sequence": "QVQLVESGGGLVQAGGCLRLSCAASGSTFPIYDMGWYRQAPGKERELVAAITYSGGSTNYADSVKRRFTNSRDNAKTSVYFQMNSLKPDDTAVYYCAARYTAYIQSGMGYWGQGSQVTVSS", "polyreactivity (PSR sort gate)": "high polyreactivity"}
{"sequence": "QVQLVESGGGLVQAGGCLRLSCAASGSTFRGNAMGWYRQAPGKERELVAAITYSGGSTDYADSVKGRFTISRDNAKNTVYLQMNSLKPDDTAVYYCAARWYYYPLLYDYWGQGTQVTVSS", "polyreactivity (PSR sort gate)": "low polyreactivity"}
{"sequence": "QVQLVESGGGLVQAGGCLRLSCAASGSTLDSNAMGWYREAPGKERELVAGIDWCGGSTYADSVKGRFTISRDNAKNTVELQMTSLKPEDTAVYYCAKVSRYVQPYSRFDYWGQGTQVTVSS", "polyreactivity (PSR sort gate)": "low polyreactivity"}
{"sequence": "QVQLVESGGGLVQAGGCLRLSCADSGGTFGPYAMGWYIQAPGKEREFVARITGSGTRTYYADSVKGRFTISGDNAKNNVYLQMNSLNPEDTAVYYCATSHSRGSRGHDYWGQGTQVTVSS", "polyreactivity (PSR sort gate)": "low polyreactivity"}
{"sequence": "QVQLVESGGGLVQAGGGLRLSFPASGRTFTVNAMGWSRQSPGKERELVATITYGGGSRYYADSVKGRFTISRDNAKNSVYLQMNSLKPEDTAVYYCAARSDNYHVYYFKRWGKYYSWGQGTQVTVSS", "polyreactivity (PSR sort gate)": "low polyreactivity"}
{"sequence": "QVQLVESGGGLVQAGGIHRLSCASTGRTFPAYAMGWYRQAPGKERELVAAITINGGYTYYADSVKGRFTISRDNAKNSVYLQMKSLKPEDTAVYYCAAYYDSPSHGYWGQVTQVTVSS", "polyreactivity (PSR sort gate)": "low polyreactivity"}
{"sequence": "QVQLVESGGGLVQAGGIIRLSCDASGSTFVIYAMGWYRQAPGKERELVAVIDYSDDSTYYADSVKGRFTISRDNAKNTGYLQLNSVKPEVTEVYFCAAYVYYAKGSFDYWGQGTQVTVSS", "polyreactivity (PSR sort gate)": "high polyreactivity"}
